Experimental data from PMC3916842.

Legend:
talin (human) [1] = target: talin (human) (UniProt Q9Y490); test: FRAP on a spinning disk confocal microscope
talin (human) [2] = target: talin (human) (UniProt Q9Y490); test: FRAP on a TIRF microscope
talin (human) [3] = target: talin (human) (UniProt Q9Y490); test: TIRF microscopy of recruitment to a protein-micropatterned surface

In the case of “EGFP-vinculin 1-851 (Vh) (from UniProt P18206 1-851) (domain or fragment)”, the koff (talin (human) [1]) is reported as 0.0029 s⁻¹, the koff (talin (human) [2]) is reported as 0.0033 s⁻¹ and the koff (talin (human) [3]) is reported as 0.0034 s⁻¹.
